Assay results reported in patent US20060159683A1 (UNIVERSITY OF ZURICH, published 2006).

T1: recombinant soluble human epithelial glycoprotein-2 (M1-F259) with a six-histidine C-terminal tag (human, UniProt P16422 24-259)
T1 construct: range 1-259; In SPR it was amine-coupled to a CM-5 chip at 350 RU; also called recombinant soluble EGP-2-antigen; immobilized EGP-2
T1 sequence: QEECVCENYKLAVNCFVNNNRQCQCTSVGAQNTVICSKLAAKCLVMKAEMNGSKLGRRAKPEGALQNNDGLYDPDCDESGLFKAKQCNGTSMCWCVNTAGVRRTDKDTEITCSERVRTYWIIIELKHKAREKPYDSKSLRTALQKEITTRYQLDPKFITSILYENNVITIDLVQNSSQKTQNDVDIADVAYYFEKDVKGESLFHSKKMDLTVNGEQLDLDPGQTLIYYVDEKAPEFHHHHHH

T2: epithelial glycoprotein-2 (EGP-2) on SW2 human small cell lung carcinoma cells (human, UniProt P16422 24-314)
T2 construct: whole, on cells; also called GA733-2; Ep-CAM
T2 sequence (looked up): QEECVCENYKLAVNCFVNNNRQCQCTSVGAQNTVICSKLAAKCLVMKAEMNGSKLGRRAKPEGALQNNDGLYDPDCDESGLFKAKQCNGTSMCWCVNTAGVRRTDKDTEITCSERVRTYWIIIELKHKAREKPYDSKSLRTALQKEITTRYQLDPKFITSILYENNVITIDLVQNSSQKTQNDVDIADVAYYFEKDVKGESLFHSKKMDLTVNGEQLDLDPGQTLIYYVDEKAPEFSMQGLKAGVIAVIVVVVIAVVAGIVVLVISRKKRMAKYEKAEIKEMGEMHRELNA


Legend:
[1] = target: T1, recombinant soluble human epithelial …; assay: SPR (BIAcore), EGP-2 immobilized, 20 C
Protocol: (§1) Kinetic rate constants were determined by surface plasmon resonance (SPR) with a BIAcore instrument. Recombinant soluble EGP-2-antigen was covalently coupled to a CM-5 sensor chip via free amine groups resulting, in a surface coverage of 350 resonance units. Single-chain Fv fragments were injected in increasing concentrations (0.1 nM 4.4 μM) at a flow rate of 30 μl/min of degassed PBS/0.005% Tween-20. Association and dissociation rate constants were calculated from the sensorgram the by a global curve fit using the BIAevaluation 3.0 software (Pharmacia).
(§2) To minimize rebinding effects which could lead to an underestimation of the off-rates, we used low density coating and high flow rate.

[2] = target: T2, epithelial glycoprotein-2 (EGP-2) on …; assay: RIA, 99mTc-labelled scFv on SW2 cells, 4 C
Protocol: The binding affinity of the ^99mTc labelled single-chain Fv fragments was determined on SW2 cells in a radioimmunoaffinity assay (RIA). SW2 (0.5×10⁶) cells were incubated with increasing amounts of single-chain Fv fragment (100 pM-30 nM) for 1 hour at 4° C. For estimation of nonspecific binding control samples of cells were pre-incubated with a 100-fold excess of unlabelled single-chain. Fv fragment for 1 h at 4° C. The bound fraction of single-chain Fv fragment was determined in a scintillation counter. Each obtained value represents the mean of two samples. Counts per minutes (cpm) were plotted against the nanomolar concentration of single-chain Fv fragment and fitted with the non-linear regression function.
High-affinity binding with long residual time on the specific target antigen is regarded as one of the most important characteristics of antibodies for tumor targeting. To ensure that binding affinity was conserved in the grafting experiment dissociation constants of the radiolabelled single-chain Fv fragment were determined on cells in a radioimmunoactrvity assay (RIA).

[3] = target: T1, recombinant soluble human epithelial …; assay: SPR (BIAcore), EGP-2 immobilized, low density coating and high flow rate
Protocol: as §1, §2

[4] = target: T3, c-erbB2 (UniProt P04626 23-652, limits assumed); assay: solid-phase RIA, 99mTc-labelled scFv on coated antigen
T3 construct: also called p185Her2
Protocol: (§3) In three washing steps cells were centrifuged at 1000 g for 5 min at 4° C., the supernatants discarded and the cells re-suspended in PBS/1% BSA. The remaining radioactivity was then measured in a scintillation counter. In a further binding experiment both-scFv fragments (50 ng) were incubated with different antigens, coated (500 ng/well) on a 96 well microtiter plate, to check for cross-reactivity. The wells were washed three times with PBS/1% BSA and the radioactivity was determined.

[5] = target: T4, EGF-receptor (extracellular domain) (UniProt P00533 25-645); assay: as above
T4 construct: extracellular domain
Protocol: as §3

[6] = target: T2, epithelial glycoprotein-2 (EGP-2) on …; assay: competition RIA on SW2 cells against 99mTc-labelled 4D5MOC-A and 4D5MOC-B
Protocol: as §3

Kd [1] | koff [1] | kon [1] | Kd [2] | half-life of binding [3] | binding result [6] | Binder | binding result [4] | binding result [5]
3 nM | 0.0003 s⁻¹ | 99000 M⁻¹ s⁻¹ | 10.8 nM | ~38 min | – | anti-EGP-2 scFv fragment obtained from the murine hybridoma MOC31 (scFv, 99mTc-tricarbonyl bound to the C-terminal His tag in the RIA and Lindmo assays; unlabelled in SPR, Murine scFv expressed from vector pAK400 in E. coli periplasm and purified by IMAC through its His tag; also called scFv MOC31; MOC31 scFv) scFv: DIVMTQSAFSNPVTLGTSASISCRSTKSLLHSNGITYLYWYLQKPGQSPQLLIYQMSNLASGVPDRFSSSGSGTDFTLRISRVEAEDVGVYYCAQNLEIPRTFGGGTKLEIKRTPSHNSHQVPSAGGPTANSGTSGSQVQLQQSGPELKKPGETVKISCKASGYTFTNYGMNWVKQAPGRGLKWMGWINTYTGESTYADDFKGRFAFSLETSASAAYLQINNLKNEDTATYFCARFAIKGDYWGQGTTLTVSS | – | –
3.5 nM | – | – | 3.6 nM | – | – | anti-EGP-2 scFv fragment 4D5MOC-A (scFv, 99mTc-tricarbonyl complexed to the C-terminal His tag in the RIA and Lindmo assays; unlabelled in SPR. The tag itself is not in the letters., the others are not; Expected mass 29,855 Da; also called scFv 4D5MOC-A; graft variant 4D5MOC-A) scFv: DIQMTQSPSSLSASVGDRVTITCRSTKSLLHSNGITYLYWYQQKPGKAPKLLIYQMSNLASGVPSRFSSSGSGTDFTLTISSLQPEDFATYYCAQNLEIPRTFGQGTKVELKRTPSHNSHQVPSAGGPTANSGTSGSEVQLVESGGGLVQPGGSLRLSCAASGYTFTNYGMNWVRQAPGKGLEWMGWINTYTGESTYADSVKGRFTFSLDTSASAAYLQMNSLRAEDTAVYYCARFAIKGDYWGQGTLVTVSS | – | –
3.9 nM | 0.000717 s⁻¹ | 184000 M⁻¹ s⁻¹ | 3.7 nM | – | – | anti-EGP-2 scFv fragment 4D5MOC-B (scFv, 99mTc-tricarbonyl bound to the C-terminal His tag in the RIA and Lindmo assays; unlabelled in SPR, Expected mass 29,897 Da; also called scFv 4D5MOC-B) scFv: DIQMTQSPSSLSASVGDRVTITCRSTKSLLHSNGITYLYWYQQKPGKAPKLLIYQMSNLASGVPSRFSSSGSGTDFTLTISSLQPEDFATYYCAQNLEIPRTFGQGTKVELKRTPSHNSHQVPSAGGPTANSGTSGSEVQLVQSGPGLVQPGGSVRISCAASGYTFTNYGMNWVKQAPGKGLEWMGWINTYTGESTYADSFKGRFTFSLDTSASAAYLQINSLRAEDTAVYYCARFAIKGDYWGQGTLLTVSS | no binding (tested: 50 ng scFv on 500 ng/well antigen) | no binding (tested: 50 ng scFv on 500 ng/well antigen)
– | – | – | – | – | binds | murine monoclonal antibody MOC31 (antibody, V domains shown, Whole murine antibody from hybridoma MOC31; also called mAb MOC31) VH: QVQLQQSGPELKKPGETVKISCKASGYTFTNYGMNWVKQAPGRGLKWMGWINTYTGESTYADDFKGRFAFSLETSASAAYLQINNLKNEDTATYFCARFAIKGDYWGQGTTLTVSS VL: DIVMTQSAFSNPVTLGTSASISCRSTKSLLHSNGITYLYWYLQKPGQSPQLLIYQMSNLASGVPDRFSSSGSGTDFTLRISRVEAEDVGVYYCAQNLEIPRTFGGGTKLEIK | – | –
